Laboratory results reported in article PMC5317272 (The Biochemical journal, 2016).

Assays:
[1] = target: MARK1 kinase–UBA domain fragment (residues 45–371), tag-cleaved (human, UniProt Q9P0L2 45-371); test: SAXS
[2] = target: MARK1 kinase–UBA domain fragment (residues 45–371), hexahistidine tag intact (human, UniProt Q9P0L2 45-371); test: SPR
MARK1 kinase–UBA domain fragment (residues 45–371), hexahistidine tag intact, sequence (Q9P0L2 45-371): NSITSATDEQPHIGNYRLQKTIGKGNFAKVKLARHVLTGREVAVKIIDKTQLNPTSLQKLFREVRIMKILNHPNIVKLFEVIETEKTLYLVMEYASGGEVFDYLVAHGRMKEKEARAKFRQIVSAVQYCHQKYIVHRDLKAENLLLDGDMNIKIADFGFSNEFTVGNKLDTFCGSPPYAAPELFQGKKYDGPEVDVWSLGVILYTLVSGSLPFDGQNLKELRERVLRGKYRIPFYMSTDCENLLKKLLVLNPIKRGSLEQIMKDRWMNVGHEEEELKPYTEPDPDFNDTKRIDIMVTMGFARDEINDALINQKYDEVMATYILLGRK

MARK1 kinase–UBA domain fragment (residues 45–371), tag-cleaved, sequence (Q9P0L2 45-371): as above

stoichiometry N [1]: 1
Kd [2]: 73 µM
B1: MARK1 KA1 domain (residues 683–795) (domain or fragment)
chain: not shown
